24 molecules from patent US20180016346A1 (Kyowa Kirin, published 2018) can be followed below.

Changes are numbered by the printed parent chain.

B1: hTRAILR2-hPSMA bispecific antibody E11-CH1-PI115VH antibody (bispecific antibody, IgG4)
heavy: not shown
VL: EIVLTQSPATLSLSPGERATLSCRASQSVSSFLAWYQQKPGQAPRLLIYDASNRATGIPARFSGSGSGTDFTLTISSLEPEDFAVYYCQQRSNWPLTFGPGTKVDIKR
notes: domain: constant region; The heavy chain is E11 VH, an IgG4 CH1 linker and PI115 VH, followed by the constant region of the vector; All four light chains carry E11 VL
B2: hTRAILR2-hPSMA bispecific antibody E11-ML-PI101VH antibody (bispecific antibody, IgM)
heavy: not shown
VL: B1 VL
notes: domain: constant region; All four light chains carry E11 VL
B3: hTRAILR2-hPSMA bispecific antibody E11-CH1-PI143VH antibody (bispecific antibody, IgG4)
heavy: not shown
VL: B1 VL
notes: domain: constant region; The heavy chain is E11 VH, an IgG4 CH1 linker and PI143 VH, followed by the constant region of the vector; All four light chains carry E11 VL
B4: hTRAILR2-hPSMA bispecific antibody E11-CH1-PL223VH antibody (bispecific antibody, IgG4)
heavy: not shown
VL: B1 VL
notes: domain: constant region; The heavy chain is E11 VH, an IgG4 CH1 linker and PL223 VH, followed by the constant region of the vector; All four light chains carry E11 VL; also called E11-CHI-PL223VH
B5: hTRAILR2-hPSMA bispecific antibody E11-CH1-PI108VH antibody (bispecific antibody, IgG4)
heavy: not shown
VL: B1 VL
notes: domain: constant region; The heavy chain is E11 VH, an IgG4 CH1 linker and PI108 VH, followed by the constant region of the vector; All four light chains carry E11 VL
B6: hTRAILR2-hPSMA bispecific antibody E11-CH1-PI127VH antibody (bispecific antibody, IgG4)
heavy: not shown
VL: B1 VL
notes: domain: constant region; The heavy chain is E11 VH, an IgG4 CH1 linker and PI127 VH, followed by the constant region of the vector; All four light chains carry E11 VL
B7: hTRAILR2-hPSMA bispecific antibody E11-CH1-PI118VH antibody (bispecific antibody, IgG4)
heavy: not shown
VL: B1 VL
notes: domain: constant region; The heavy chain is E11 VH, an IgG4 CH1 linker and PI118 VH, followed by the constant region of the vector; All four light chains carry E11 VL
B8: hTRAILR2-hPSMA bispecific antibody E11-GL-PI134VH antibody (bispecific antibody, IgG4)
heavy: not shown
VL: B1 VL
notes: domain: constant region; All four light chains carry E11 VL; also called E11-GL-PI1134VH
B9: hTRAILR2-hPSMA bispecific antibody E11-CH1-PN170VH antibody (bispecific antibody, IgG4)
heavy: not shown
VL: B1 VL
notes: domain: constant region; The heavy chain is E11 VH, an IgG4 CH1 linker and PN170 VH, followed by the constant region of the vector; All four light chains carry E11 VL
B10: hTRAILR2-hPSMA bispecific antibody E11-CH1-PI134VH antibody (bispecific antibody, IgG4)
heavy: not shown
VL: B1 VL
notes: domain: constant region; All four light chains carry E11 VL; also called E11-CH1-PI134 antibody
B11: hTRAILR2-hPSMA bispecific antibody E11-CH1-PI101VH antibody (bispecific antibody, IgG4)
heavy: not shown
VL: B1 VL
notes: domain: constant region; The heavy chain is E11 VH, an IgG4 CH1 linker and PI101 VH, followed by the constant region of the vector; All four light chains carry E11 VL
B12: anti-hPSMA monoclonal antibody 2A10 antibody (antibody, human IgG1, V domains shown)
VH: EVQLVQSGAEVKKPGESLKISCKGSGYSFTSNWIGWVRQMPGKGLEWMGIIYPGDSDTRYSPSFQGQVTISADKSISTAYLQWSSLKASDTAMYYCARQTGFLWSSDLWGRGTLVTVSS
VL: IQLTQSPSSLSASVGDRVTITCRASQDISSALAWYQQKPGKAPKLLIYDASSLESGVPSRFSGYGSGTDFTLTINSLQPEDFATYYCQQFNSYPLTFGGGTKVEIK
notes: Expressed from vector N5KG1 (N5KG1_2A10), the human IgG1 type vector
B13: hTRAILR2-hPSMA bispecific antibody fragment E11-CH1-PN7VH F(ab′)2 (bispecific antibody)
heavy: QLQLQESGPGLVKPSETLSLTCTVSGGSIISKSSYWGWIRQPPGKGLEWIGSIYYSGSTFYNPSLKSRVTISVDTSKNQFSLKLSSVTAADTAVYYCARLTVAEFDYWGQGTLVTVSSASTKGPSVFPLAPCSRSTSESTAALGCLVKDYFPEPVTVSWNSGALTSGVHTFPAVLQSSGLYSLSSVVTVPSSSLGTKTYTCNVDHKPSNTKVDKRVEVQLVQSGAEVKKPGASVKVSCKASGYTFTTYDINWVRQATGQGLEWMGWMNPNSGYTGYAQKFQGRVTMTRDTSISTAYMELSSLRSEDTAVYYCARTNWESWYFDLWGRGTLVTVSSASTKGPSVFPLAPCSRSTSESTAALGCLVKDYFPEPVTVSWNSGALTSGVHTFPAVLQSSGLYSLSSVVTVPSSSLGTKTYTCNVDHKPSNTKVDKRVESKYGPPCPPCPDYKDDDDKHHHHHH
VL: B1 VL
notes: CH2 and CH3 are deleted; The heavy chain carries a C-terminal FLAG-tag and His-tag and dimerises through cysteine in the hinge region; All light chains carry E11 VL
B14: PI134 phage clone (scFv displayed on M13 phage) (scFv, V domains shown)
VH: QVQLVQSGAEVKKPGASVKVSCKASGYTFTTYDINWVRQATGQGLEWMGWMNPNNGYTGYAQKFQGRVTMTRNTSISTAYMELSSLRSEDTAVYYCARTNWVYWYFDLWGRGTLVTVSS
VL: B1 VL
notes: Tested as an scFv on M13 phage (phagemid pCANTAB 5E)
B15: PI105 phage clone (scFv displayed on M13 phage) (scFv, V domains shown)
VH: B14 VH with Q1E, M48L, S77G, S84N
VL: EIVLTQSPATLSLSPGERATLSCRASQSVSSFLAWYQQKPGQAPRLLIYDASNRATGIPARFSGSGSGTDFTLTISSLEPEDFAVYYCQQRSNWPLTFGPGTKVDIK
notes: Tested as an scFv on M13 phage (phagemid pCANTAB 5E); not shown: scFv linker, domain order, tag and M13 coat-protein fusion of phagemid pCANTAB 5E; copies: 1 + 1
B16: PN170 phage clone (scFv displayed on M13 phage) (scFv, V domains shown)
VH: EVQLVQSGAEVKKPGASVKVSCKASGYTLTSYDINWVRQATGQGLEWMGWMNPNSGYTGYAQKFQDRVTMTRNTAINTAYMELSSLRSEDTAVYYCAREAGYDGIWYFDLWGRGTLVTVSS
VL: B1 VL
notes: as for B14
B17: PI115 phage clone (scFv displayed on M13 phage) (scFv, V domains shown)
VH: B14 VH with Q1E
VL: B1 VL
notes: as for B14
B18: PI118 phage clone (scFv displayed on M13 phage) (scFv, V domains shown)
VH: B14 VH with T28N, F29L, N55S, S77D, S85N
VL: B1 VL
notes: as for B14
B19: PL223 phage clone (scFv displayed on M13 phage) (scFv, V domains shown)
VH: B14 VH with Q1E, L114M
VL: B1 VL
notes: as for B14
B20: PN7 phage clone (scFv displayed on M13 phage) (scFv, V domains shown)
VH: B14 VH with Q1E, N55S, N73D, V102E, Y103S
VL: B1 VL
notes: as for B14
B21: PI143 phage clone (scFv displayed on M13 phage) (scFv, V domains shown)
VH: B14 VH with L114T
VL: B1 VL
notes: Tested as an scFv on M13 phage (phagemid pCANTAB 5E); also called P1143
B22: PI127 phage clone (scFv displayed on M13 phage) (scFv, V domains shown)
VH: B14 VH with M48L, S77G, S84N
VL: B1 VL
notes: as for B14
B23: PI101 phage clone (scFv displayed on M13 phage) (scFv, V domains shown)
VH: B14 VH with Q1E, T28N, F29L, T30A, N55S, N73D, S77N
VL: B1 VL
notes: as for B14
B24: PI108 phage clone (scFv displayed on M13 phage) (scFv, V domains shown)
VH: B14 VH with S84T
VL: B1 VL
notes: as for B14

T1 sequence (Q04609 whole entry): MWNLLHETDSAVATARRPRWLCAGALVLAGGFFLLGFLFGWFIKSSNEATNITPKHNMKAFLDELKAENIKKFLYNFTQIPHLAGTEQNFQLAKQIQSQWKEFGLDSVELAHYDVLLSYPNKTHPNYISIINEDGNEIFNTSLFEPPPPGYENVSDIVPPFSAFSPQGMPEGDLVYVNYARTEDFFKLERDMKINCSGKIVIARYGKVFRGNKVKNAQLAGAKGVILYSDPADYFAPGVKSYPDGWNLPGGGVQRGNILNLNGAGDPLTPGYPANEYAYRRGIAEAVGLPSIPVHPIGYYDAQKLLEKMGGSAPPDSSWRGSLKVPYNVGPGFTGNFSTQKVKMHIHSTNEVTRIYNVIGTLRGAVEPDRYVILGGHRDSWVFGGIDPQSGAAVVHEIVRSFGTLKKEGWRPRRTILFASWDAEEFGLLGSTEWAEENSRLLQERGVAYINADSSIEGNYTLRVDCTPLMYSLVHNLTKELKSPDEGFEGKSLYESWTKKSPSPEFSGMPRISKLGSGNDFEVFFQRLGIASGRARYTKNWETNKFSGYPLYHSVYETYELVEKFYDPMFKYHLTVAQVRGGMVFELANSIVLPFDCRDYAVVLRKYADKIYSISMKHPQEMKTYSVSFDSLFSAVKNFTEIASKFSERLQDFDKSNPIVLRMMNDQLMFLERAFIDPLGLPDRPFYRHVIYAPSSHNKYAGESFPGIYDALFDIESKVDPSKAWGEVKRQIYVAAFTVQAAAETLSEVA

One assay addresses T1, human prostate specific membrane antigen (hPSMA), membrane form on cells (human, UniProt Q04609 1-750).
T1 construct: endogenous on LNCaP clone FGC cells; also called membrane hPSMA
The experiment in a line: flow cytometry on hPSMA/PC3 cells against PC3 cells (no data disclosed).
With B1, the binding result was “binds”.

Consider B2, for which the binding result was “binds”.

B3: the binding result is given as “binds”.

On to B4, for which the binding result is “binds”.

For B5, the binding result is on record as “binds”.

Consider B6, for which the binding result is “binds”.

Take B7: the binding result is “binds”.

The target in another assay is T1, human prostate specific membrane …. The experiment in a line: flow cytometry on hPSMA/L929 cells (FIG. 2). As to the method:
The cells were suspended in a staining buffer [PBS containing 0.1% NaN₃ and 1% FBS] at a concentration of 1×10⁶ cells/mL, and dispensed in a round-bottom 96-well plate (manufactured by Becton Dickinson) by 100 μL/well. After the centrifugation (2000 rpm, 4° C., 2 minutes), each antibody obtained in Example 7 was added to the pellet obtained by removing the supernatant, and suspended, and then left stand at ice temperature for 30 minutes.
After the further centrifugation (2000 rpm, 4° C., 2 minutes), the pellet obtained by removing the supernatant was washed twice with 200 μL/well of the staining buffer. Thereafter, 1 μg/mL of RPE fluorescently labeled mouse anti-human antibody (hinge region) clone 4E3 antibody (manufactured by Southern Bioblot) was added thereto by 50 μL/well and incubated at ice temperature for 30 minutes. After washing twice with the staining buffer, the cells were suspended in 200 μL/well of the staining buffer, and the fluorescence intensity of each cell was measured with the flow cytometer FACSCANTO II (manufactured by Becton Dickinson). The obtained results are illustrated in FIG. 2 and FIG. 3.
hPSMA/L929 cells were stained with anti-TRAILR2 monoclonal antibody E11 antibody, anti-hPSMA monoclonal antibody PI134 antibody, or hTRAILR2-hPSMA bispecific antibody E11-CH1-PI101VH antibody, E11-CH1-PN7VH antibody or E11-CH1-PN170VH antibody. The obtained results are illustrated in FIG. 2.
A general note: A flow cytometer gives signals particle by particle.
On to B8, for which the binding result was “binds”.

With B9, the binding result was “binds”.

Consider B10, for which the binding result is “binds”.

Regarding B11, the binding result is “binds”.

As for B12, the binding result is listed as “binds”.

The target is the same in another assay. The experiment in a line: flow cytometry.
With B13, the binding result is on record as “binds”.

The next assay deals with T2, FLAG-hPSMA, extracellular domain protein of hPSMA with a FLAG-tag at the N-terminus (human, UniProt Q04609 44-750).
T2 construct: also called FLAG-PSMA; soluble hPSMA antigen
T2 sequence (Q04609 other isoform, or with tags, fused parts or gaps): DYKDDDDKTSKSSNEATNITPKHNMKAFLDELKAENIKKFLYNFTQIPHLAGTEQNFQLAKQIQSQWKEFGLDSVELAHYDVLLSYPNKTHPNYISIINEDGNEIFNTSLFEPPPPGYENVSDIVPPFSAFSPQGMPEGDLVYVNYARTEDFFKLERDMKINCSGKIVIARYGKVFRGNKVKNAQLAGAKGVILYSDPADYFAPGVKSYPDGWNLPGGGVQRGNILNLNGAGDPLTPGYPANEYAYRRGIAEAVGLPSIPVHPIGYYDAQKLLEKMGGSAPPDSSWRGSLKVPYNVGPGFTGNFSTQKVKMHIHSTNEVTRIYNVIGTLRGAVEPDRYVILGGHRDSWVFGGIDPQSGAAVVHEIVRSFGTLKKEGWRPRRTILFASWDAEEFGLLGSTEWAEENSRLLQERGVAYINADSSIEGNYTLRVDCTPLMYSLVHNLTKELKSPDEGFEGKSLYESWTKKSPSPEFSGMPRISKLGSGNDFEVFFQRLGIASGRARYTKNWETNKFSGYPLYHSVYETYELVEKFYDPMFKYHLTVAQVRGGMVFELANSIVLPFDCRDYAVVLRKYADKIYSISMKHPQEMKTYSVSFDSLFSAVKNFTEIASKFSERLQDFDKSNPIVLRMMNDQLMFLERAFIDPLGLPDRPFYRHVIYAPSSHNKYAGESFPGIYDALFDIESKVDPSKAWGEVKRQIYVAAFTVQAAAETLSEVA
The experiment in a line: phage ELISA, scFv phage clone on immobilized FLAG-PSMA. The procedure: The concentrated phage was monocloned and clones having the affinity to FLAG-PSMA were selected by ELISA. In ELISA, MAXISORP STARTUBE (manufactured by NUNC) in which the FLAG-PSMA of Example 5 described below was immobilized thereon, and a site not bound by FLAG-PSMA was blocked by using SuperBlock Blockig Buffer (manufactured by Thermo Fisher Scientific Inc.) was used.
Each phage clone was added to each well and allowed to react at room temperature for 30 minutes, and then each well was washed three times with PBS containing 0.1% Tween 20 (hereinafter referred to as PBS-T). Subsequently, a solution in which horseradish peroxidase-labeled anti-M13 antibody (manufactured by GE Healthcare) was diluted 5000 times with PBS-T containing 10% Block Ace (manufactured by Dainippon Pharma Co., Ltd.) was added to each well by 50 μL and incubated at room temperature for 30 minutes.
On to B14, for which the binding result is reported as “binds”.

For the molecule B15, the binding result was “binds”.

Regarding B16, the binding result is “binds”.

As for B17, the binding result is recorded as “binds”.

Turning to B18, the binding result was “binds”.

With B19, the binding result is given as “binds”.

Consider B20, for which the binding result is listed as “binds”.

Turning to B21, the binding result is “binds”.

On to B22, for which the binding result is recorded as “binds”.

Regarding B23, the binding result is recorded as “binds”.

With B24, the binding result is on record as “binds”.
